According to the supplement of paper PMC11246515:
± gives the standard deviation of the averaged measurements.

Experiment: total protein half-life in vivo (active degradation + dilution); higher = more stable protein
[1] = E. coli NCM3722 delta-clpP delta-lon delta-hslV, growth: N-lim chemostat, doubling time 6 h
[2] = E. coli NCM3722 delta-clpP, growth: N-lim chemostat, doubling time 6 h
[3] = E. coli NCM3722 delta-hslV, growth: N-lim chemostat, doubling time 6 h
[4] = E. coli NCM3722 delta-lon, growth: N-lim chemostat, doubling time 6 h
[5] = E. coli NCM3722 delta-smpB, growth: N-lim chemostat, doubling time 6 h
[6] = wild type E. coli NCM3722, growth: C-lim chemostat, doubling time 3 h
[7] = wild type E. coli NCM3722, growth: C-lim chemostat, doubling time 6 h
[8] = wild type E. coli NCM3722, growth: C-lim chemostat, doubling time 12 h
[9] = wild type E. coli NCM3722, growth: N-lim chemostat, doubling time 6 h
[10] = wild type E. coli NCM3722, growth: N-lim chemostat, doubling time 12 h
[11] = wild type E. coli NCM3722, growth: P-lim chemostat, doubling time 6 h
[12] = wild type E. coli NCM3722, growth: P-lim chemostat, doubling time 12 h

MNFEGKIALVTGASRGIGRAIAETLAARGAKVIGTATSENGAQAISDYLGANGKGLMLNVTDPASIESVLEKIRAEFGEVDILVNNAGITRDNLLMRMKDEEWNDIIETNLSSVFRLSKAVMRAMMKKRHGRIITIGSVVGTMGNGGQANYAAAKAGLIGFSKSLAREVASRGITVNVVAPGFIETDMTRALSDDQRAGILAQVPAGRLGGAQEIANAVAFLASDEAAYITGETLHVNGGMYMV [P0AEK2]
total protein half-life in vivo [1]: 5.03 ± 0.11 h
total protein half-life in vivo [2]: 4.85 ± 0.11 h
total protein half-life in vivo [3]: 4.8 ± 0.2 h
total protein half-life in vivo [4]: 5.27 ± 0.39 h
total protein half-life in vivo [5]: 4.814 ± 0.012 h
total protein half-life in vivo [6]: 2.98 ± 0.11 h
total protein half-life in vivo [7]: 5.91 ± 0.17 h
total protein half-life in vivo [8]: 12.8 ± 3.6 h
total protein half-life in vivo [9]: 4.81 ± 0.28 h
total protein half-life in vivo [10]: 8.546 ± 0.024 h
total protein half-life in vivo [11]: 6.06 ± 0.38 h
total protein half-life in vivo [12]: 11.3 ± 0.73 h

MKFWRPGITGKLFLAIFATCIVLLISMHWAVRISFERGFIDYIKHGNEQRLQLLSDALGEQYAQHGNWRFLRNNDRFVFQILRSFEHDNSEDKPGPGMPPHGWRTQFWVVDQNNKVLVGPRAPIPPDGTRRPILVNGAEVGAVIASPVERLTRNTDINFDKQQRQTSWLIVALATLLAALATFLLARGLLAPVKRLVDGTHKLAAGDFTTRVTPTSEDELGKLAQDFNQLASTLEKNQQMRRDFMADISHELRTPLAVLRGELEAIQDGVRKFTPETVASLQAEVGTLTKLVDDLHQLSMSDEGALAYQKAPVDLIPLLEVAGGAFRERFASRGLKLQFSLPDSITVFGDRDRLMQLFNNLLENSLRYTDSGGSLQISAGQRDKTVRLTFADSAPGVSDDQLQKLFERFYRTEGSRNRASGGSGLGLAICLNIVEAHNGRIIAAHSPFGGVSITVELPLERDLQREV
total protein half-life in vivo [1]: 6.52 ± 0.079 h
total protein half-life in vivo [2]: 6.22 ± 0.26 h
total protein half-life in vivo [3]: 6.4 ± 0.69 h
total protein half-life in vivo [4]: 6.08 ± 0.73 h
total protein half-life in vivo [5]: 5.49 ± 0.43 h
total protein half-life in vivo [6]: 3.33 ± 0.098 h
total protein half-life in vivo [8]: 11.3 ± 2.3 h
total protein half-life in vivo [9]: 6.23 ± 0.92 h
total protein half-life in vivo [10]: 12.9 ± 0.13 h
total protein half-life in vivo [11]: 6.86 ± 0.52 h
total protein half-life in vivo [12]: 12.1 ± 1.4 h

MKPGCTLFFLLCSALTVTTEAHAQTPDTATTAPYLLAGAPTFDLSISQFREDFNSQNPSLPLNEFRAIDSSPDKANLTRAASKINENLYASTALERGTLKIKSIQMTWLPIQGPEQKAAKAKAQEYMAAVIRTLTPLMTKTQSQKKLQSLLTAGKNKRYYTETEGALRYVVADNGEKGLTFAVEPIKLALSESLEGLNK
total protein half-life in vivo [1]: 6.2 ± 0.26 h
total protein half-life in vivo [2]: 5.91 ± 0.5 h
total protein half-life in vivo [3]: 5.05 ± 0.18 h
total protein half-life in vivo [4]: 5.3822 ± 0.0028 h
total protein half-life in vivo [5]: 5.12 ± 0.43 h
total protein half-life in vivo [6]: 2.86 ± 0.12 h
total protein half-life in vivo [7]: 5.26 ± 1.2 h
total protein half-life in vivo [8]: 8.36 ± 0.16 h
total protein half-life in vivo [9]: 4.14 ± 0.39 h
total protein half-life in vivo [10]: 8.35 ± 1.6 h
total protein half-life in vivo [11]: 3.75 ± 0.27 h
total protein half-life in vivo [12]: 8.75 ± 1.1 h

MQTQLTEEMRQNARALEADSILRACVHCGFCTATCPTYQLLGDELDGPRGRIYLIKQVLEGNEVTLKTQEHLDRCLTCRNCETTCPSGVRYHNLLDIGRDIVEQKVKRPLPERILREGLRQVVPRPAVFRALTQVGLVLRPFLPEQVRAKLPAETVKAKPRPPLRHKRRVLMLEGCAQPTLSPNTNAATARVLDRLGISVMPANEAGCCGAVDYHLNAQEKGLARARNNIDAWWPAIEAGAEAILQTASGCGAFVKEYGQMLKNDALYADKARQVSELAVDLVELLREEPLEKLAIRGDKKLAFHCPCTLQHAQKLNGEVEKVLLRLGFTLTDVPDSHLCCGSAGTYALTHPDLARQLRDNKMNALESGKPEMIVTANIGCQTHLASAGRTSVRHWIEIVEQALEKE
total protein half-life in vivo [3]: 1.54 h
total protein half-life in vivo [4]: 2.63 ± 0.16 h
total protein half-life in vivo [5]: 1.29 ± 0.16 h
total protein half-life in vivo [6]: 1.33 ± 0.28 h
total protein half-life in vivo [7]: 2.42 ± 0.12 h
total protein half-life in vivo [8]: 4.17 ± 0.18 h
total protein half-life in vivo [10]: 2.2136 ± 0.00075 h
total protein half-life in vivo [11]: 2.14 h
total protein half-life in vivo [12]: 4.65 ± 0.33 h

MPVITLPDGSQRHYDHAVSPMDVALDIGPGLAKACIAGRVNGELVDACDLIENDAQLSIITAKDEEGLEIIRHSCAHLLGHAIKQLWPHTKMAIGPVIDNGFYYDVDLDRTLTQEDVEALEKRMHELAEKNYDVIKKKVSWHEARETFANRGESYKVSILDENIAHDDKPGLYFHEEYVDMCRGPHVPNMRFCHHFKLMKTAGAYWRGDSNNKMLQRIYGTAWADKKALNAYLQRLEEAAKRDHRKIGKQLDLYHMQEEAPGMVFWHNDGWTIFRELEVFVRSKLKEYQYQEVKGPFMMDRVLWEKTGHWDNYKDAMFTTSSENREYCIKPMNCPGHVQIFNQGLKSYRDLPLRMAEFGSCHRNEPSGSLHGLMRVRGFTQDDAHIFCTEEQIRDEVNGCIRLVYDMYSTFGFEKIVVKLSTRPEKRIGSDEMWDRAEADLAVALEENNIPFEYQLGEGAFYGPKIEFTLYDCLDRAWQCGTVQLDFSLPSRLSASYVGEDNERKVPVMIHRAILGSMERFIGILTEEFAGFFPTWLAPVQVVIMNITDSQSEYVNELTQKLSNAGIRVKADLRNEKIGFKIREHTLRRVPYMLVCGDKEVESGKVAVRTRRGKDLGSMDVNEVIEKLQQEIRSRSLKQLEE [P0A8M3]
total protein half-life in vivo [1]: 5.73 ± 0.81 h
total protein half-life in vivo [2]: 5.78 ± 1.1 h
total protein half-life in vivo [3]: 5.411 ± 0.034 h
total protein half-life in vivo [4]: 6.36 ± 0.29 h
total protein half-life in vivo [5]: 5.34 ± 0.06 h
total protein half-life in vivo [6]: 3.18 ± 0.052 h
total protein half-life in vivo [7]: 6.43 ± 0.58 h
total protein half-life in vivo [8]: 11.3 ± 0.88 h
total protein half-life in vivo [9]: 5.35 ± 0.11 h
total protein half-life in vivo [10]: 9.648 ± 0.077 h
total protein half-life in vivo [11]: 5.99 ± 0.14 h
total protein half-life in vivo [12]: 13.3 ± 0.97 h

MLNKLSLLLKDAGISLTDHQKNQLIAYVNMLHKWNKAYNLTSVRDPNEMLVRHILDSIVVAPYLQGERFIDVGTGPGLPGIPLSIVRPEAHFTLLDSLGKRVRFLRQVQHELKLENIEPVQSRVEEFPSEPPFDGVISRAFASLNDMVSWCHHLPGEQGRFYALKGQMPEDEIALLPEEYQVESVVKLQVPALDGERHLVVIKANKI [P0A6U5]
total protein half-life in vivo [1]: 5.85 ± 1.7 h
total protein half-life in vivo [2]: 4.636 ± 0.041 h
total protein half-life in vivo [4]: 5.33 ± 0.68 h
total protein half-life in vivo [5]: 4.48 ± 0.18 h
total protein half-life in vivo [6]: 3.51 ± 0.68 h
total protein half-life in vivo [8]: 10.5 ± 1.6 h
total protein half-life in vivo [9]: 5.09 ± 0.33 h
total protein half-life in vivo [10]: 8.45 ± 0.31 h
total protein half-life in vivo [11]: 5.87 ± 0.69 h
total protein half-life in vivo [12]: 13.1 ± 2 h
